# T1: OapB (Bacillus halodurans, UniProt Q9KGD7 5-102)
# T1 sequence: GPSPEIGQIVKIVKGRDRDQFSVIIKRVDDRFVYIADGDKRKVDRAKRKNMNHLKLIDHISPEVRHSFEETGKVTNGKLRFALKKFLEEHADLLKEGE
# Target: T1, OapB
# Assay: X-ray crystallography
binder,measurement,value
"OLE* (P12.2, P13, P14, P15 minimized OLE RNA) (structured_RNA) RNA: GGCCAGUCUGGCGUUUGGUGACAGCGCCAAGUUCUUCGGAAUUGGGAAAUCCUACUGGCC",binding result,binds
